How the values were obtained:
Experiment in all cases: SEC-MALS; SEC-LS (static and dynamic light scattering, refractive index, absorbance at 280 and 550 nm); Shodex KW 802.5 column at 4 °C, 25 mM Tris pH 7.5, 150 mM NaCl, 4 mM CaCl2, 0.5 mL/min; 50 µL injected
[1] = target: DC-SIGNR Fc-CRD (fusion of the DC-SIGNR CRD with human IgG1 Fc) (human)
Cy3-NeutrAvidin = target: T1, Cy3-NeutrAvidin (UniProt P02701 25-152, Cy3 (Cy3-NHS ester, degree of labelling 0.5)); conditions: both partners purified
T1 construct: NeutrAvidin, a deglycosylated tetrameric protein derived from avidin; subunit MW = 14.5 kDa as printed; Deglycosylated avidin; also called NeutrAvidin-Cy3; tetrameric NeutrAvidin; source: bought: ThermoFisher Scientific; labelled with Cy3-NHS ester

[2] = target: the molecule itself

T1 sequence (P02701 25-152): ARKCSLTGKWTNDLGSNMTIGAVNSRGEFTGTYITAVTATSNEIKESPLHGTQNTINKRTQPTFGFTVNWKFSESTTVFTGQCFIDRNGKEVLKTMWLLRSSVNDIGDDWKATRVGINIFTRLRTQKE

DC-SIGNR Fc-CRD (fusion of the DC-SIGNR CRD with human IgG1 Fc) (Fc fusion)
stoichiometry N [1]: 2

B1: Biotin sortagged DC-SIGNR-CRD (biotin-LPRT-GGG-DC-SIGNR CRD) (domain or fragment, human)
chain: LPRTGGGLCRHCPKDWTFFQGNCYFMSNSQRNWHDSVTACQEVRAQLVVIKTAEEQNFLQLQTSRSNRFSWMGLSDLNQEGTWQWVDGSPLSPSFQRYWNSGEPNNSGNEDCAEFSGSGWNDNRCDVDNYWICKKPAACFRDE
modifications: biotin on the N-terminus (biotin-LPRT peptide joined by sortase A)
notes: sortase A motif of the biotin-LPRT-OMe peptide, transferred onto the N-terminal glycines; poly-Gly extension at the N-terminus of the CRD, exposed after factor Xa cleavage; DC-SIGNR (L-SIGN), human, CRD, amino acids 264 to 399; optimized synthetic gene in pET30-b between XbaI and HindIII; Theoretical mass 16.5 kDa (ESI-MS 16,556); also called biotin-CRD; biotinylated DC-SIGNR CRD; source: …
stoichiometry N (Cy3-NeutrAvidin): 4 biotin-CRD per NeutrAvidin tetramer (4:4 by chains)

B2: DC-SIGNR ECD (natural extracellular domain of human DC-SIGNR) (domain or fragment, UniProt Q9H2X3 78-399, looked up)
chain: SLSQEQSEQDAIYQNLTQLKAAVGELSEKSKLQEIYQELTQLKAAVGELPEKSKLQEIYQELTRLKAAVGELPEKSKLQEIYQELTRLKAAVGELPEKSKLQEIYQELTRLKAAVGELPEKSKLQEIYQELTELKAAVGELPEKSKLQEIYQELTQLKAAVGELPDQSKQQQIYQELTDLKTAFERLCRHCPKDWTFFQGNCYFMSNSQRNWHDSVTACQEVRAQLVVIKTAEEQNFLQLQTSRSNRFSWMGLSDLNQEGTWQWVDGSPLSPSFQRYWNSGEPNNSGNEDCAEFSGSGWNDNRCDVDNYWICKKPAACFRDE
notes: DC-SIGNR (L-SIGN), human, extracellular domain, amino acids 78 to 399; optimized synthetic gene in pET30-b between NdeI and HindIII; also called natural tetrameric DC-SIGNR ECD; L-SIGN ECD
stoichiometry N [2]: 4

From paper PMC7432041, “[…], Artificial Tetrameric Lectins: A Tool to Screen Ligand and Pathogen Interactions” (International Journal of Molecular Sciences, 2020)
